In patent WO2015087187A1 (dated 2015):

T1: recombinant human SOST (rhSOST) (human, UniProt Q9BQB4 24-213)
T1 construct: Treated as one molecule; also called recombinant human SOST protein; human sclerostin
T1 sequence: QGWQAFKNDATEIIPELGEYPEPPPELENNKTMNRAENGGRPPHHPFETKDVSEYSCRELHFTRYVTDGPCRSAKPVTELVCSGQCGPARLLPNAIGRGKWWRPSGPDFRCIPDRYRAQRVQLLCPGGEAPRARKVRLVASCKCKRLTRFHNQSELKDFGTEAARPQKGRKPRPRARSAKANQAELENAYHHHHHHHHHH


Biological target: T1, recombinant human SOST (rhSOST)
Assay: SPR Biacore T200, IgG captured via anti-human Fc, rhSOST analyte, 37 C

| Binder | Kd | koff | kon |
| --- | --- | --- | --- |
| DM1 (antibody, V domains shown, also called mH10/mL4) VH: EVQLLESGGGLVQPGGSLRLSCAASGHTFSDYWMQWVRQAPGKGLEWVGAIYPGDGDTRYNQKFKDRFTISRDNSKNTLYLQMNSLRAEDTAVYYCARSMDYWGQGTLVTVSS VL: DIVMTQSPDSLAVSLGERATINCRASKTVDSYGNSFMHWFQQKPGQPPKLLIHHSSNLESGVPDRFSGSGSGTDFTLTISSLQAEDVAVYYCLQTIEHPYTFGQGTKLEIK | 0.566 nM | 0.000741 s⁻¹ | 1.31e+06 M⁻¹ s⁻¹ |
| DM15 (antibody, V domains shown, also called wt/mL4) VH: EVQLLESGGGLVQPGGSLRLSCAASGHTFTDYWMQWVRQAPGKGLEWIGAIYPGDGDTRYNQKFKDRFTISRDNSKNTLYLQMNSLRAEDTAVYYCARSMDYWGQGTLVTVSS VL: DIVMTQSPDSLAVSLGERATINCRASKTVDSYGNSFMHWFQQKPGQPPKLLIHHSSNLESGVPDRFSGSGSGTDFTLTISSLQAEDVAVYYCLQTIEHPYTFGQGTKLEIK | 0.08 nM | 0.000297 s⁻¹ | 3.72e+06 M⁻¹ s⁻¹ |
| DM22 (antibody, V domains shown, also called mH2/wt) VH: EVQLLESGGGLVQPGGSLRLSCAASGFTFTDYWMQWVRQAPGKGLEWIGAIYPGDGDTRYNQKFKDRFTISRDNSKNTLYLQMNSLRAEDTAVYYCARSMDYWGQGTLVTVSS VL: DIVMTQSPDSLAVSLGERATINCRASKTVDSYGNSFMHWFQQKPGQPPKLLIHHSSNLESGVPDRFSGSGSGTDFTLTISSLQAEDVAVYYCLQTIEDPYTFGQGTKLEIK | 0.015 nM | 0.000152 s⁻¹ | 1.04e+07 M⁻¹ s⁻¹ |
| DM17 (antibody, V domains shown, also called wt/mL6) VH: EVQLLESGGGLVQPGGSLRLSCAASGHTFTDYWMQWVRQAPGKGLEWIGAIYPGDGDTRYNQKFKDRFTISRDNSKNTLYLQMNSLRAEDTAVYYCARSMDYWGQGTLVTVSS VL: DIVMTQSPDSLAVSLGERATINCRASKTVDSYGNSFMHWFQQKPGQPPKLLIHHSSNLESGVPDRFSGSGSGTDFTLTISSLQAEDVAVYYCLQTIEDSYTFGQGTKLEIK | 0.044 nM | 0.000207 s⁻¹ | 4.7e+06 M⁻¹ s⁻¹ |
| DM2 (antibody, V domains shown, also called mH10/mL14) VH: EVQLLESGGGLVQPGGSLRLSCAASGHTFSDYWMQWVRQAPGKGLEWVGAIYPGDGDTRYNQKFKDRFTISRDNSKNTLYLQMNSLRAEDTAVYYCARSMDYWGQGTLVTVSS VL: DIVMTQSPDSLAVSLGERATINCRASKTVDSYGNSFMHWFQQKPGQPPKLLIYHSSNLESGVPDRFSGSGSGTDFTLTISSLQAEDVAVYYCLQTIEHPYTFGQGTKLEIK | 0.321 nM | 0.000797 s⁻¹ | 2.48e+06 M⁻¹ s⁻¹ |
| DM14 (antibody, V domains shown, also called wt/mL3) VH: EVQLLESGGGLVQPGGSLRLSCAASGHTFTDYWMQWVRQAPGKGLEWIGAIYPGDGDTRYNQKFKDRFTISRDNSKNTLYLQMNSLRAEDTAVYYCARSMDYWGQGTLVTVSS VL: DIVMTQSPDSLAVSLGERATINCRASKTVDSYGNSFMHWYQQKPGQPPKLLIYHSSNLESGVPDRFSGSGSGTDFTLTISSLQAEDVAVYYCLQTIEDPYTFGQGTKLEIK | 0.016 nM | 8.31e-05 s⁻¹ | 5.22e+06 M⁻¹ s⁻¹ |
| DM18 (antibody, V domains shown, also called wt/mL8) VH: EVQLLESGGGLVQPGGSLRLSCAASGHTFTDYWMQWVRQAPGKGLEWIGAIYPGDGDTRYNQKFKDRFTISRDNSKNTLYLQMNSLRAEDTAVYYCARSMDYWGQGTLVTVSS VL: DIVMTQSPDSLAVSLGERATINCRASKTVDSYGNSFMHWFQQKPGQPPKLLIHHSSNLESGVPDRFSGSGSGTDFTLTISSLQAEDVAVYYCLQTIDEPYTFGQGTKLEIK | 0.179 nM | 0.00104 s⁻¹ | 5.81e+06 M⁻¹ s⁻¹ |
| DM12 (antibody, V domains shown, also called wt/mL1) VH: EVQLLESGGGLVQPGGSLRLSCAASGHTFTDYWMQWVRQAPGKGLEWIGAIYPGDGDTRYNQKFKDRFTISRDNSKNTLYLQMNSLRAEDTAVYYCARSMDYWGQGTLVTVSS VL: DIVMTQSPDSLAVSLGERATINCRASKTVDSYGNSFMHWYQQKPGQPPKLLIHHSSNLESGVPDRFSGSGSGTDFTLTISSLQAEDVAVYYCLQTIEDPYTFGQGTKLEIK | 0.009 nM | 5.62e-05 s⁻¹ | 6.55e+06 M⁻¹ s⁻¹ |
| DM7 (antibody, V domains shown, also called mH11/mL14) VH: EVQLLESGGGLVQPGGSLRLSCAASGFTFSDYWMQWVRQAPGKGLEWVGAIYPGDGDTRYNQKFKDRFTISRDNSKNTLYLQMNSLRAEDTAVYYCARSMDYWGQGTLVTVSS VL: DIVMTQSPDSLAVSLGERATINCRASKTVDSYGNSFMHWFQQKPGQPPKLLIYHSSNLESGVPDRFSGSGSGTDFTLTISSLQAEDVAVYYCLQTIEHPYTFGQGTKLEIK | 0.966 nM | 0.00402 s⁻¹ | 4.16e+06 M⁻¹ s⁻¹ |
| DM3 (antibody, V domains shown, also called mH10/mL15) VH: EVQLLESGGGLVQPGGSLRLSCAASGHTFSDYWMQWVRQAPGKGLEWVGAIYPGDGDTRYNQKFKDRFTISRDNSKNTLYLQMNSLRAEDTAVYYCARSMDYWGQGTLVTVSS VL: DIVMTQSPDSLAVSLGERATINCRASKTVDSYGNSFMHWYQQKPGQPPKLLIYHSSNLESGVPDRFSGSGSGTDFTLTISSLQAEDVAVYYCLQTIEHPYTFGQGTKLEIK | 1.84 nM | 0.00285 s⁻¹ | 1.55e+06 M⁻¹ s⁻¹ |

The remaining lines, values ahead:

| Kd | koff | kon | Binder |
| --- | --- | --- | --- |
| 0.207 nM | 0.000817 s⁻¹ | 3.94e+06 M⁻¹ s⁻¹ | DM16 (antibody, V domains shown, also called wt/mL5) VH: EVQLLESGGGLVQPGGSLRLSCAASGHTFTDYWMQWVRQAPGKGLEWIGAIYPGDGDTRYNQKFKDRFTISRDNSKNTLYLQMNSLRAEDTAVYYCARSMDYWGQGTLVTVSS VL: DIVMTQSPDSLAVSLGERATINCRASKTVDSYGNSFMHWFQQKPGQPPKLLIHHSSNLESGVPDRFSGSGSGTDFTLTISSLQAEDVAVYYCLQTIEDHYTFGQGTKLEIK |
| 1.18 nM | 0.00251 s⁻¹ | 2.12e+06 M⁻¹ s⁻¹ | DM6 (antibody, V domains shown, also called mH10/mL17) VH: EVQLLESGGGLVQPGGSLRLSCAASGHTFSDYWMQWVRQAPGKGLEWVGAIYPGDGDTRYNQKFKDRFTISRDNSKNTLYLQMNSLRAEDTAVYYCARSMDYWGQGTLVTVSS VL: DIVMTQSPDSLAVSLGERATINCRASKTVDSYGNSFMHWYQQKPGQPPKLLIYHSSNLESGVPDRFSGSGSGTDFTLTISSLQAEDVAVYYCLQTIEFPYTFGQGTKLEIK |
| < 0.0016 nM | < 2.8e-05 s⁻¹ | 1.72e+07 M⁻¹ s⁻¹ | DM13 (antibody, V domains shown, also called wt/mL2) VH: EVQLLESGGGLVQPGGSLRLSCAASGHTFTDYWMQWVRQAPGKGLEWIGAIYPGDGDTRYNQKFKDRFTISRDNSKNTLYLQMNSLRAEDTAVYYCARSMDYWGQGTLVTVSS VL: DIVMTQSPDSLAVSLGERATINCRASKTVDSYGNSFMHWFQQKPGQPPKLLIYHSSNLESGVPDRFSGSGSGTDFTLTISSLQAEDVAVYYCLQTIEDPYTFGQGTKLEIK |
| 2.32 nM | 0.00434 s⁻¹ | 1.87e+06 M⁻¹ s⁻¹ | DM9 (antibody, V domains shown, also called mH10/mL18) VH: EVQLLESGGGLVQPGGSLRLSCAASGHTFSDYWMQWVRQAPGKGLEWVGAIYPGDGDTRYNQKFKDRFTISRDNSKNTLYLQMNSLRAEDTAVYYCARSMDYWGQGTLVTVSS VL: DIVMTQSPDSLAVSLGERATINCRASKTVDSYGSNFMHWYQQKPGQPPKLLIYHSSNLESGVPDRFSGSGSGTDFTLTISSLQAEDVAVYYCLQTIEHPYTFGQGTKLEIK |
| 0.015 nM | 0.00012 s⁻¹ | 7.83e+06 M⁻¹ s⁻¹ | DM20 (antibody, V domains shown, also called mH1/wt) VH: EVQLLESGGGLVQPGGSLRLSCAASGHTFSDYWMQWVRQAPGKGLEWIGAIYPGDGDTRYNQKFKDRFTISRDNSKNTLYLQMNSLRAEDTAVYYCARSMDYWGQGTLVTVSS VL: DIVMTQSPDSLAVSLGERATINCRASKTVDSYGNSFMHWFQQKPGQPPKLLIHHSSNLESGVPDRFSGSGSGTDFTLTISSLQAEDVAVYYCLQTIEDPYTFGQGTKLEIK |
| 2.93 nM | 0.007 s⁻¹ | 2.39e+06 M⁻¹ s⁻¹ | DM8 (antibody, V domains shown, also called mH11/mL17) VH: EVQLLESGGGLVQPGGSLRLSCAASGFTFSDYWMQWVRQAPGKGLEWVGAIYPGDGDTRYNQKFKDRFTISRDNSKNTLYLQMNSLRAEDTAVYYCARSMDYWGQGTLVTVSS VL: DIVMTQSPDSLAVSLGERATINCRASKTVDSYGNSFMHWYQQKPGQPPKLLIYHSSNLESGVPDRFSGSGSGTDFTLTISSLQAEDVAVYYCLQTIEFPYTFGQGTKLEIK |
| 0.096 nM | 0.000388 s⁻¹ | 4.06e+06 M⁻¹ s⁻¹ | DM19 (antibody, V domains shown, also called wt/mL10) VH: EVQLLESGGGLVQPGGSLRLSCAASGHTFTDYWMQWVRQAPGKGLEWIGAIYPGDGDTRYNQKFKDRFTISRDNSKNTLYLQMNSLRAEDTAVYYCARSMDYWGQGTLVTVSS VL: DIVMTQSPDSLAVSLGERATINCRASKTVDSYGNSFMHWFQQKPGQPPKLLIHHSSNLESGVPDRFSGSGSGTDFTLTISSLQAEDVAVYYCLQTIEFHYTFGQGTKLEIK |
| 0.193 nM | 0.000754 s⁻¹ | 3.91e+06 M⁻¹ s⁻¹ | DM5 (antibody, V domains shown, also called mH10/mL16) VH: EVQLLESGGGLVQPGGSLRLSCAASGHTFSDYWMQWVRQAPGKGLEWVGAIYPGDGDTRYNQKFKDRFTISRDNSKNTLYLQMNSLRAEDTAVYYCARSMDYWGQGTLVTVSS VL: DIVMTQSPDSLAVSLGERATINCRASKTVDSYGNSFMHWFQQKPGQPPKLLIYHSSNLESGVPDRFSGSGSGTDFTLTISSLQAEDVAVYYCLQTIEFPYTFGQGTKLEIK |
| < 0.0016 nM | < 2.8e-05 s⁻¹ | 1.7e+07 M⁻¹ s⁻¹ | DM11 (antibody, V domains shown, also called wt/wt) VH: EVQLLESGGGLVQPGGSLRLSCAASGHTFTDYWMQWVRQAPGKGLEWIGAIYPGDGDTRYNQKFKDRFTISRDNSKNTLYLQMNSLRAEDTAVYYCARSMDYWGQGTLVTVSS VL: DIVMTQSPDSLAVSLGERATINCRASKTVDSYGNSFMHWFQQKPGQPPKLLIHHSSNLESGVPDRFSGSGSGTDFTLTISSLQAEDVAVYYCLQTIEDPYTFGQGTKLEIK |
